Data taken from patent US20130116182A1, “Factor VIII B Cell Epitope Variants Having Reduced Immunogenicity” (priority 2009, published 2013).
Where two headings read alike, the source gives them in different places. No end group written: not given here.

Assays:
[1] = target: T1, Recombinant HLA-DRB1*1104 protein (human); experiment: competition with biotinylated reference peptide, europium-streptavidin
T1 chain 1: not shown
T1 chain 2: not shown

[2] = target: Recombinant HLA-DRB1*1101 protein (human)
[3] = target: T2, Recombinant HLA-DRB1*1501 protein (human); experiment: competition with biotinylated MBP84-102, europium-streptavidin
T2 construct: also called DR1501

[4] = target: Recombinant HLA-DRB1*0101 protein (human)
[5] = target: T2, Recombinant HLA-DRB1*1501 protein; experiment: competition with biotinylated reference peptide, europium-streptavidin
[6] = target: T3, Recombinant HLA-DRB1*0401 protein (human); conditions: remark: other sources report otherwise
T3 chain 1: not shown
T3 chain 2: not shown

[7] = target: T4, Recombinant HLA-DRB1*0101 protein (human); conditions: remark: other sources report otherwise
T4 chain 1: not shown
T4 chain 2: not shown

[8] = target: T1, Recombinant HLA-DRB1*1104 protein …; conditions: remark: other sources report otherwise
[9] = target: T5, Recombinant HLA-DRB1*1101 protein (human); conditions: remark: other sources report otherwise
T5 chain 1: not shown
T5 chain 2: not shown

[10] = target: T6, Recombinant HLA-DRB1*1501 protein (human); experiment: competition with biotinylated MBP84-102, europium-streptavidin; conditions: remark: other sources report otherwise
T6 chain 1: not shown
T6 chain 2: not shown

[11] = target: Recombinant HLA-DRB1*1101 protein (human); remark: listed apart in the source
[12] = target: T7, Recombinant HLA-DRB1*0301 protein (human); experiment: competition with a reference peptide, residual Europium fluorescence
T7 construct: also called DR0301

[13] = target: T8, Recombinant HLA-DRB1*1101 protein (human); experiment: as above
T8 construct: also called DR1101; HLA-DR1101

[14] = target: T2, Recombinant HLA-DRB1*1501 protein; experiment: as above
[15] = target: T9, Recombinant HLA-DRB1*0401 protein (human); experiment: as above
T9 construct: also called DR0401

[16] = target: T10, Recombinant HLA-DRB1*1104 protein (human); experiment: as above
T10 construct: also called DR1104

[17] = target: T11, Recombinant HLA-DRB1*0301 protein (human); experiment: competition with biotinylated Myo137-148, europium-streptavidin; conditions: remark: other sources report otherwise
T11 chain 1: not shown
T11 chain 2: not shown

[18] = target: T8, Recombinant HLA-DRB1*1101 protein; remark: listed apart in the source

## PLYATGRLSQA (modifications not checked) [HSV-2 VP16 34-44 reference peptide]
[1]
  IC50: 3.1 µM

## RFLPNPAGVQL [FVIII593-603 peptide]
[2]
  IC50: 5.7 µM

## ENRSWYLTENIQCFLPNPAG [FVIII581-600,593C peptide]
[3]
  IC50: 56 µM
[4]
  IC50: 50 µM

## NPVVHFFKNIVTPRTPPPS (also: biotin label, position not given here) [Human MBP 84-102 reference peptide]
[5]
  IC50: 50 nM

## FLPNPAGVQL [FVIII594-603 peptide]
[2]
  IC50: 12.8 µM

## ENIQRFLPNPAGVQLEDPEF [FVIII589-608 peptide]
[6]
  IC50: 38 µM
[7]
  IC50: 4.2 µM
[8]
  IC50: 59 µM
[9]
  IC50: 1100 nM
[10]
  IC50: 4.6 µM

## LYGEVGDTLLIIFKNQASRP [FVIII453-472 peptide]
[11]
  IC50: 200 nM

## SYATNMFATWSP [FVIII2194-2205, F2196A peptide]
[12]
  IC50: 50 µM
[13]
  IC50: > 50 µM
[14]
  IC50: > 50 µM
[15]
  IC50: > 50 µM
[16]
  IC50: > 50 µM

## LHEVAYWYILSIGAQTDFLS [FVIII637-656 peptide]
[11]
  IC50: 300 nM

## ENRSWYLTENIQRFLPNPAG [FVIII581-600 peptide]
[6]
  IC50: 48 µM
[7]
  IC50: 38 µM
[8]
  IC50: 9.8 µM
[9]
  IC50: 1100 nM
[17]
  IC50: 44 µM
[10]
  IC50: 3.7 µM

## DAQITASSYFTNMFATWSP [FVIII2187-2205 peptide]
[18]
  IC50: 12 µM

## LTRYYSSFVNMERDLASGLI [FVIII529-548 peptide]
[11]
  IC50: 200 nM
